# Results from the supplement of paper PMC9112550, “Optimization of the antimicrobial peptide Bac7 by deep mutational scanning” (BMC Biology, 2022).
# System: Escherichia coli TOP10
# Assay: shrunken log2 fold change of peptide-encoding DNA abundance (4.5 h post-induction vs induction); higher = less antimicrobial activity (less host growth inhibition)
# Settings: time post-induction: 4.5 h; library: site-saturation at positions 5, 18, 19, 20
# 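Also: peptides expressed intracellularly from a pBAD plasmid library in pooled LB shake-flask culture, induced with 0.3% L-arabinose, DNA abundance read by NGS, three biological replicates, DESeq2 with apeglm shrinkage.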
row,Sequence,shrunken log2 fold change
1,RRIRQRPPRLPRPRPRPVPNPRP,0.154
2,RRIRERPPRLPRPRPRPGYHPRP,-0.502
3,RRIRIRPPRLPRPRPRPYGQPRP,-0.284
4,RRIRGRPPRLPRPRPRPQEQPRP,0.458
5,RRIRYRPPRLPRPRPRPSCRPRP,-0.6
6,RRIRARPPRLPRPRPRPDGCPRP,0.239
7,RRIRLRPPRLPRPRPRPADKPRP,0.122
8,RRIRLRPPRLPRPRPRPHDAPRP,-0.0938
9,RRIRIRPPRLPRPRPRPPCLPRP,-0.122
10,RRIRVRPPRLPRPRPRPVGWPRP,0.77
11,RRIRNRPPRLPRPRPRPLYVPRP,-0.641
12,RRIRARPPRLPRPRPRPKIHPRP,-0.0619
13,RRIRSRPPRLPRPRPRPFPNPRP,-0.133
14,RRIRIRPPRLPRPRPRPAKKPRP,0.0493
15,RRIRQRPPRLPRPRPRPQKAPRP,-0.109
16,RRIRFRPPRLPRPRPRPVIKPRP,-0.339
17,RRIRMRPPRLPRPRPRPPEPPRP,0.296
18,RRIRMRPPRLPRPRPRPDWCPRP,0.0698
19,RRIRVRPPRLPRPRPRPTTLPRP,-0.111
20,RRIRLRPPRLPRPRPRPTHHPRP,0.239

row,Sequence,shrunken log2 fold change
1,RRIRHRPPRLPRPRPRPNQRPRP,0.333
2,RRIRWRPPRLPRPRPRPADHPRP,0.193
3,RRIRARPPRLPRPRPRPCRVPRP,-0.19
4,RRIRPRPPRLPRPRPRPGSRPRP,0.144
5,RRIRRRPPRLPRPRPRPQDHPRP,-0.0159
6,RRIRLRPPRLPRPRPRPKYAPRP,0.0149
7,RRIRLRPPRLPRPRPRPFTAPRP,-0.625
8,RRIRFRPPRLPRPRPRPEWEPRP,0.00489
9,RRIRDRPPRLPRPRPRPLSCPRP,-0.212
10,RRIRIRPPRLPRPRPRPAYGPRP,-0.253
11,RRIRDRPPRLPRPRPRPFNDPRP,-0.158
12,RRIRRRPPRLPRPRPRPSIAPRP,0.238
13,RRIRKRPPRLPRPRPRPIVSPRP,-0.0354
14,RRIRLRPPRLPRPRPRPRHHPRP,-0.0411
15,RRIRFRPPRLPRPRPRPIQPPRP,0.137
16,RRIRLRPPRLPRPRPRPRGQPRP,0.533
17,RRIRMRPPRLPRPRPRPQHNPRP,-0.605
18,RRIRYRPPRLPRPRPRPHCNPRP,-0.366
19,RRIRKRPPRLPRPRPRPQYIPRP,0.102
20,RRIRHRPPRLPRPRPRPFQHPRP,-0.0182

row,Sequence,shrunken log2 fold change
1,RRIRLRPPRLPRPRPRPVNCPRP,-0.0144
2,RRIRYRPPRLPRPRPRPAHVPRP,-0.144
3,RRIRDRPPRLPRPRPRPCSDPRP,0.0293
4,RRIRVRPPRLPRPRPRPQDHPRP,-0.253
5,RRIRNRPPRLPRPRPRPTYIPRP,-0.603
6,RRIRMRPPRLPRPRPRPEWQPRP,0.23
7,RRIRSRPPRLPRPRPRPMIDPRP,-0.249
8,RRIRWRPPRLPRPRPRPITFPRP,-0.232
9,RRIRERPPRLPRPRPRPNMKPRP,-0.6
10,RRIRFRPPRLPRPRPRPVCGPRP,0.277
11,RRIRARPPRLPRPRPRPAMPPRP,-0.131
12,RRIRWRPPRLPRPRPRPYWTPRP,-0.175
13,RRIRHRPPRLPRPRPRPRSHPRP,-0.221
14,RRIRGRPPRLPRPRPRPGTNPRP,0.133
15,RRIRMRPPRLPRPRPRPPKHPRP,0.829
16,RRIRWRPPRLPRPRPRPEMWPRP,1.05
17,RRIRTRPPRLPRPRPRPWLMPRP,-0.11
18,RRIRVRPPRLPRPRPRPRSGPRP,0.322
19,RRIRRRPPRLPRPRPRPENLPRP,0.0548
20,RRIRARPPRLPRPRPRPPWFPRP,0.36
